Consider one molecule from US20260226154A1 (CEPHALON, published 2026).

Test [1] deals with T1, PACAP38 (human, not fully specified).
T1 construct: The background says natural PACAP is alpha-amidated
T1 peptide: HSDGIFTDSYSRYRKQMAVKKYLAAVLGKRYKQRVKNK
Put plainly: SPR (Biacore S200) off-rate ranking, antibody captured from supernatant, single injection of 33.3 nM PACAP38. As for the experimental part:
In brief, antibody and peptide interaction was determined on a Biacore S200 (GE Healthcare) by method previously described (Andreu and Gomes 2002). An anti-Human IgG Fc capture antibody was immobilized on a CM5 biosensor chip via standard amine coupling. Anti-PACAP antibodies were injected and captured to 200 to 400 response units (RU),). PACAP38, PACAP27 and VIP were diluted in HBS-EP+ buffer containing 0.1% w/v BSA (Bovostar, catalog number BSAS1.0) and 0.15 M NaCl (Sigma-Aldrich catalog number S7653), pH 7.4. […] For subsequent cycles, the chip was regenerated using 0.85% phosphoric acid. Data was analysed with the Biacore S200 Evaluation Software (ver 1.0). Association rate (kₐ) and dissociation rate (kd) constants were determined using a simple one-to-one Langmuir binding model and used to calculate the equilibrium dissociation constant (KD).

Test [2] addresses T1, PACAP38. Put plainly: cell-based or functional assay.
The target of test [3] is T1, PACAP38. The test can be described thus: cell-based or functional assay.
In a further test the target is T2, GLP-2.
T2 construct: also called Glucagon-Like Peptide 2
T2 peptide: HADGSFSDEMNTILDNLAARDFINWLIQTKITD
Put plainly: SPR (Biacore) at 37 C, captured antibody, 37.5 nM peptide, relative response after 15 sec dissociation. As to the method: (§1) The anti-PACAP antibodies, e.g., 890C, were tested against related peptides in the Secretin Glucagon family (Table 19) to determine the presence and extent of any off-target binding. Nine bioactive peptides in the glucagon superfamily are: PACAP, VIP, glucagon, Glucagon-Like Peptides (GLP-1, GLP-2), Growth Hormone Releasing Factor (GRF or GHRF), Peptide Histidine Methionine (PHM), secretin, and Gastric inhibitory polypeptide (GIP). Following capture of antibodies as described in example 4, the antibody and the peptide interaction was measured by injection of 37.5 nM of each peptide diluted in buffer at 37° C. with a flow rate of […] for 2 min followed by a dissociation phase of 4-5 min. Samples were injected in a multi-cycle manner over freshly captured anti-PACAP antibody, by regenerating the capture surfaces with two injections of 0.85% phosphoric acid at a flow rate of 30 μL/min.
(§2) The selectivity of antibody 890C was assessed by comparing the inhibition of PACAP38-signalling to inhibition of VIP-signalling in a cyclic AMP (cAMP) measuring cell-based functional assay.

Another test addresses T3, GLP-1.
T3 construct: also called Glucagon-Like Peptide 1
T3 peptide: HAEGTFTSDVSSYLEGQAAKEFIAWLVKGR
Described as above. As for the experimental part: as §1, §2

The target in another test is Glucagon. The test is described as above. As to the method:
as §1, §2

Another test deals with T4, Secretin.
T4 peptide: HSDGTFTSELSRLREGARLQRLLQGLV
The description is as above. As for the experimental part:
as §1, §2

Another test deals with T5, GRF.
T5 construct: also called GHRF; Growth Hormone Releasing Factor
T5 peptide: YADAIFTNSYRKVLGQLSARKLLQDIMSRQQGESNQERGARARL
The description is as above. As for the experimental part:
as §1, §2

The target of the next test is T6, GIP.
T6 peptide: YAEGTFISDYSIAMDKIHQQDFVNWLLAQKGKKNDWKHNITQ
The description is as above. As for the experimental part:
as §1, §2

A further test deals with T7, PHM.
T7 construct: also called Peptide Histidine Methionine
T7 peptide: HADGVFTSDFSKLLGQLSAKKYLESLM
The description is as above. As for the experimental part: as §1, §2

The target in test [4] is T8, VIP (human).
T8 construct: also called vasoactive intestinal peptide
T8 peptide: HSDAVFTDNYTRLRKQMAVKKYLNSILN
The test can be described thus: SPR (Biacore), 37 C, captured antibody; target VIP. As to the method: (§3) In brief, antibody and peptide interaction was determined on a Biacore S200 (GE Healthcare) by method previously described (Andreu and Gomes 2002). An anti-Human IgG Fc capture antibody was immobilized on a CM5 biosensor chip via standard amine coupling. Anti-PACAP antibodies were injected and captured to 200 to 400 response units (RU),). PACAP38, PACAP27 and VIP were diluted in HBS-EP+ buffer containing 0.1% w/v BSA (Bovostar, catalog number BSAS1.0) and 0.15 M NaCl (Sigma-Aldrich catalog number S7653), pH 7.4. Binding kinetics of antibodies were determined by injection of two-fold serial dilutions of PACAPs (12 nm to 0 nM) and VIP (1200 nM to 0 nM) in running buffer at 37° C. with a flow rate of 40 μL/min for 2 min followed by a dissociation for 10 minutes. For subsequent cycles, the chip was regenerated using 0.85% phosphoric acid. Data was analysed with the Biacore S200 Evaluation Software (ver 1.0). Association rate (kₐ) and dissociation rate (kd) constants were determined using a simple one-to-one Langmuir binding model and used to calculate the equilibrium dissociation constant (KD).
as §2

Test [5] deals with T8, VIP. The test can be described thus: cell-based or functional assay.
Test [6] addresses T1, PACAP38. The test can be described thus: cell-based or functional assay.
The target of test [7] is T1, PACAP38. The test can be described thus: cell-based or functional assay.
Test [8] deals with T1, PACAP38. The test can be described thus: SPR (Biacore), 37 C, captured antibody; target PACAP38. As for the experimental part: as §3, §2
(In general: SPR reads the build-up and loss of mass on a sensor chip optically.)

Another test deals with T9, PACAP27 (human, not fully specified).
T9 peptide: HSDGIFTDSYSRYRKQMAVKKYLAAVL
Put plainly: SPR (Biacore), 37 C, captured antibody; target PACAP27. As for the experimental part:
as §3, §2

Test [9] has as its target T1, PACAP38. The test can be described thus: SPR (Biacore), 37 C, antibody captured via anti-human Fc, peptide analyte. As to the method:
as §3

Glucagon, sequence (peptide, as listed by the source): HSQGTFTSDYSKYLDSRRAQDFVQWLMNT

B1: 890C (antibody, human IgG2, kappa, V domains shown)
VH: EVQLVQSGAEVKKPGSSVKVSCKASGGTFSDVYMHWVRQAPGQGLEWMGLIYPIFADTRYAQKFQGRVTITADESTSTAYMELSSLRSEDTAVYYCAIDQDGSFAYWGQGTLVTVSS
VL: DIVMTQSPDSLAVSLGERATINCKSSQSLLDADGKTYLNWLQQKPGQPPKRLIYWASTRESGVPDRFSGSGSGTDFTLTISSLQAEDVAVYYCWQGTWFDLTFGGGTKVEIKR
notes: Full chains as named '890C heavy chain' / '890C light chain' (IgG2DASS, kappa); also called anti-PACAP antibody 890C
A word on the Kd: it is the concentration at which binding is half-saturated. Lower therefore signals tighter binding. One may read the koff as the rate constant with which the complex falls apart. As a reminder, the kon is the second-order rate constant of association. The low end stands for slower complex formation, the high end for faster complex formation. As to B1, the dissociation constant (Kd) came to 0.0284 nM with PACAP38 [1]; 390 nM with VIP [4]; 0.054 nM with PACAP38 [8]; 0.218 nM with PACAP27; 0.0284 nM in the test with PACAP38 [9]. For the same molecule, the koff with PACAP38 [1] and in the test with PACAP38 [9] was 0.000671 s⁻¹ throughout. Moreover, the kon in the test with PACAP38 [1] and with PACAP38 [9] was 2.36e+07 M⁻¹ s⁻¹ each time. Further, the “IC50 (nM), PACAP-induced cAMP accumulation, CHO-K1 cells, cAMP-Glo” value in the test with PACAP38 [2] stood at 0.32 nM. In addition, in the test with PACAP38 [3], the “selectivity, inhibition of PACAP38-induced cAMP production (CHO-K1, PAC1 receptor) versus VIP-induced cAMP production (CHO-K1, VPAC1 receptor)” value is more than 1000 fold. In addition, the binding result with GLP-2, with GLP-1, with Glucagon, in the test with Secretin, with GRF and with GIP was “no binding (tested: 37.5 nM)” in each case. Further, the binding result with PHM was “no binding (tested: 37.5 nM)”. In addition, the “IC50 (read off the curve), VIP-induced cAMP production, CHO-K1 cells expressing VPAC1” value with VIP [5] is approximately 600 nM. For the same molecule, in the test with PACAP38 [6], the “IC50 (read off the curve), PACAP-induced cAMP production, CHO-K1 cells expressing PAC1” value was approximately 0.4 nM. In addition, the “fold shift between the PACAP/PAC1 and the VIP/VPAC1 inhibition curves (selectivity for PACAP over VIP)” value in the test with PACAP38 [6] was found to be 1400 fold. Moreover, in the test with PACAP38 [7], the “PACAP-38 IC50” value was found to be 0.32 nM.
